Key:
[1] = target: T1, pyro-Glu(3-40/42) fibrils (N-terminal pyroglutamate (pyro-Glu at Aβ position 3)); assay: SPR, fibrils
T1 construct: Fibrillar aggregate of pyro-Glu(3-40/42)-Aβ

[2] = target: T2, wild-type Aβ(1-40); assay: SPR (Table 1)
T2 construct: also called WT Aβ(1-40); Aβ (1-40) monomers

[3] = target: T3, Aβ (1-40) fibrils; assay: SPR / Europium ELISA
T3 construct: Fibrillar aggregate of wild-type Aβ(1-40)

[4] = target: T4, pyro-Glu(3-40/42)-Aβ (N-terminal pyroglutamate (pyro-Glu at Aβ position 3)); assay: SPR; restated as (4.2 nM) in the line below
T4 construct: also called pyro-Glu(3-40/42) monomers; N-terminally modified pyro-glutamate Aβ
T4 sequence (peptide, as listed by the source): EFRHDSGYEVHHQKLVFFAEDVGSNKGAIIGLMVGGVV

[5] = target: T4, pyro-Glu(3-40/42)-Aβ; assay: SPR or EU-ELISA (Table 1). Column 5 has no head of its own and is read as under the head 'KD for pyro-Glu (3-40/42)' printed at c4. Restated as (37.3 nM) in the line below. Differs from c4 (4.17E-9); second, unheaded column (c5) beside c4 under 'KD for pyro-Glu (3-40/42)'; probably the other peptide length (3-40 or 3-42), which the patent does not state

T2 sequence (peptide, as listed by the source): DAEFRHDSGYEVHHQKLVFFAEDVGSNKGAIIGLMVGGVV

Kd [1]: 4.53 nM
binding result [2]: no binding
binding result [3]: no binding
Kd [4]: 4.17 nM
Kd [5]: 37.3 nM
B1: PGA 5 (antibody, IgG1, V domains shown)
VH: EVKLVESGGGLVQPGGSLRLSCVTSGFTFTENYMSWVRQPPGKALEWLGFIRNKANGYTTEYSASVKGRFTISRDNSQSILYLQMNTLRAEDSATYYCARDWDYGSSHAMDYWGQGTSVTVSS
VL: DILLTQSPAILSVSPGERVSFSCRASQNIGTSMHWFQQRTNGSPRLLIKYASESVSGIPSRFSGSGSGTDFTLSINSVESGDIADYYCQQSNSWPFTFGSGTKLEI
notes: also called 1F2 2E3; PGAS
